First the molecules themselves.
B1: 2D3-9GS-56E4-MycHis (other)
chain: EVQLVESGGSLVQPGGSLRLSCAASGFTFDDYAMSWVRQVPGKGLEWVSSINWSGTHTDYADSVKGRFTISRNNANNTLYLQMNSLKSEDTAVYYCAKNWRDAGTTWFEKSGSAGQGTQVTVSSGGGGSGGGSAAARYWDYDVFGGGTPVGGAAAEQKLISEEDLNGAAHHHHHH
B2: 2D3-9GS-59F2-MycHis (other)
chain: EVQLVESGGSLVQPGGSLRLSCAASGFTFDDYAMSWVRQVPGKGLEWVSSINWSGTHTDYADSVKGRFTISRNNANNTLYLQMNSLKSEDTAVYYCAKNWRDAGTTWFEKSGSAGQGTQVTVSSGGGGSGGGSAAARYWDFDVFGGGTPVGGAAAEQKLISEEDLNGAAHHHHHH
B3: 2D3-9GS-59H12-MycHis (other)
chain: EVQLVESGGSLVQPGGSLRLSCAASGFTFDDYAMSWVRQVPGKGLEWVSSINWSGTHTDYADSVKGRFTISRNNANNTLYLQMNSLKSEDTAVYYCAKNWRDAGTTWFEKSGSAGQGTQVTVSSGGGGSGGGSAAARSWDFDVFGGGTPVGGAAAEQKLISEEDLNGAAHHHHHH
B4: 2D3-9GS-59C2-MycHis (other)
chain: EVQLVESGGSLVQPGGSLRLSCAASGFTFDDYAMSWVRQVPGKGLEWVSSINWSGTHTDYADSVKGRFTISRNNANNTLYLQMNSLKSEDTAVYYCAKNWRDAGTTWFEKSGSAGQGTQVTVSSGGGGSGGGSAAARDWDFDVFGGGTPVGGAAAEQKLISEEDLNGAAHHHHHH
B5: 12A2 sv1-AAA-12A2 sv1-9GS-59C2-9GS-59C2 (VHH)
chain: DVQLVESGGGLVQPGGSLRLSCAASGRTFSYNPMGWFRQAPGKGRELVAAISRTGGSTYYPESVEGRFTISRDNAKRTVYLQMNSLRAEDTAVYYCAAAGVRAEQGRVRTLPSEYTFWGQGTQVTVSSAAAEVQLVESGGGLVQPGGSLRLSCAASGRTFSYNPMGWFRQAPGKGRELVAAISRTGGSTYYPESVEGRFTISRDNAKRTVYLQMNSLRAEDTAVYYCAAAGVRAEQGRVRTLPSEYTFWGQGTQVTVSSGGGGSGGGSRDWDFDVFGGGTPVGGGGGGSGGGSRDWDFDVFGGGTPVGG
notes: also called vWF-0056; VWF0056
B6: 12A2 sv1-9GS-59C2-9GS-12A2 sv1 (VHH)
chain: DVQLVESGGGLVQPGGSLRLSCAASGRTFSYNPMGWFRQAPGKGRELVAAISRTGGSTYYPESVEGRFTISRDNAKRTVYLQMNSLRAEDTAVYYCAAAGVRAEQGRVRTLPSEYTFWGQGTQVTVSSGGGGSGGGSRDWDFDVFGGGTPVGGGGGGSGGGSEVQLVESGGGLVQPGGSLRLSCAASGRTFSYNPMGWFRQAPGKGRELVAAISRTGGSTYYPESVEGRFTISRDNAKRTVYLQMNSLRAEDTAVYYCAAAGVRAEQGRVRTLPSEYTFWGQGTQVTVSS
notes: also called vWF-0053; vWF 0053
B7: vWF0054 (VHH)
single chain fusion protein: DVQLVESGGGLVQPGGSLRLSCAASGRTFSYNPMGWFRQAPGKGRELVAAISRTGGSTYYPESVEGRFTISRDNAKRTVYLQMNSLRAEDTAVYYCAAAGVRAEQGRVRTLPSEYTFWGQGTQVTVSSGGGGSGGGSRDWDFDVFGGGTPVGGGGGGSGGGSRDWDFDVFGGGTPVGGGGGGSGGGSEVQLVESGGGLVQPGGSLRLSCAASGRTFSYNPMGWFRQAPGKGRELVAAISRTGGSTYYPESVEGRFTISRDNAKRTVYLQMNSLRAEDTAVYYCAAAGVRAEQGRVRTLPSEYTFWGQGTQVTVSS
notes: also called 12A2 sv1-9GS-59C2-9GS-59C2-9GS-12A2 sv1
B8: 12A2_sv1-AAA-12A2_sv1 (VHH)
chain: DVQLVESGGGLVQPGGSLRLSCAASGRTFSYNPMGWFRQAPGKGRELVAAISRTGGSTYYPESVEGRFTISRDNAKRTVYLQMNSLRAEDTAVYYCAAAGVRAEQGRVRTLPSEYTFWGQGTQVTVSSAAAEVQLVESGGGLVQPGGSLRLSCAASGRTFSYNPMGWFRQAPGKGRELVAAISRTGGSTYYPESVEGRFTISRDNAKRTVYLQMNSLRAEDTAVYYCAAAGVRAEQGRVRTLPSEYTFWGQGTQVTVSS
notes: also called vWF-001; vWF-0001
B9: 2D3-9GS-56E4 (other)
chain: EVQLVESGGSLVQPGGSLRLSCAASGFTFDDYAMSWVRQVPGKGLEWVSSINWSGTHTDYADSVKGRFTISRNNANNTLYLQMNSLKSEDTAVYYCAKNWRDAGTTWFEKSGSAGQGTQVTVSSGGGGSGGGSRYWDYDVFGGGTPVGG
notes: untagged; Nanobody 2D3, 9GS linker, 56E4 without the two N-terminal alanines; also called 2D3-9GS-EXP56E4
B10: 2D3-9GS-59C2 (other)
chain: EVQLVESGGSLVQPGGSLRLSCAASGFTFDDYAMSWVRQVPGKGLEWVSSINWSGTHTDYADSVKGRFTISRNNANNTLYLQMNSLKSEDTAVYYCAKNWRDAGTTWFEKSGSAGQGTQVTVSSGGGGSGGGSRDWDFDVFGGGTPVGG
notes: untagged; also called 2D3-9GS-EXP59C2; 2D3-EXP59C2
B11: 59C2 (peptide)
peptide: AARDWDFDVFGGGTPVGG
B12: 59F2 (peptide)
peptide: AARYWDFDVFGGGTPVGG
B13: 59H12 (peptide)
peptide: AARSWDFDVFGGGTPVGG
B14: PMP56E4 (peptide)
peptide: AARYWDYDVFGGGTPVGG
notes: also called EXP56E4
B15: PMP56A3 (peptide)
peptide: AALYDDYDVFGGGTPVGG
notes: also called 01C7; PMP26A3
B16: PMP56H5 (peptide)
peptide: AAFYDDYDVFGGGTPAGG
notes: also called 01G7
B17: 01B3 (peptide)
peptide: AALYDDYDVFGGGTPAGG
B18: 60F1 (peptide)
peptide: AARYWDYDVFGGGSQVGG
B19: 60G5 (peptide)
peptide: AARYWDYDVFGGGSPVGG
B20: 17D12 (peptide)
peptide: AASYSDYDVFGGGTDFGP
B21: PMP56E2 (peptide)
peptide: AAYYYDYDVFGGGTPGGE
B22: PMP56F2 (peptide)
peptide: AAPYRDYDVFGGGTPRGE

T1 sequence (A2V9Z4 25-608 limits assumed): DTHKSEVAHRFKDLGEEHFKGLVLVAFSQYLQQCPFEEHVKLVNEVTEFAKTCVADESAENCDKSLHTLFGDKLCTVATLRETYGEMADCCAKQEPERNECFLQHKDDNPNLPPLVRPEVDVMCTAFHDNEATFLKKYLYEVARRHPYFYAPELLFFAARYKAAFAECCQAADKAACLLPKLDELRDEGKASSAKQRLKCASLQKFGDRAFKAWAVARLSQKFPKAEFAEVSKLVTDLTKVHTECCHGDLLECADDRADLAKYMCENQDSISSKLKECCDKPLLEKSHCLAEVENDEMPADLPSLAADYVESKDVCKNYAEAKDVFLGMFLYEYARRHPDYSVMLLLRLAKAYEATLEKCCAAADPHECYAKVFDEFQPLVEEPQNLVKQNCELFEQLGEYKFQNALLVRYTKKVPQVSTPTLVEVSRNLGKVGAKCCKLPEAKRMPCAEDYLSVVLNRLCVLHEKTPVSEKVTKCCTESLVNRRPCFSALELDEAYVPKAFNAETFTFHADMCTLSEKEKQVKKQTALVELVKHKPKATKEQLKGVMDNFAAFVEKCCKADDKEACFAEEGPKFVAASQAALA

One experiment concerns the target T1, cynomolgus monkey serum albumin (cynomolgus monkey, UniProt A2V9Z4 25-608).
T1 construct: amine-coupled to a CM5 chip; also called CSA; cynoSA
As to the kind of experiment: SPR, BIAcore 3000, CSA on CM5 chip. Here is the method: (§1) For this purpose, binding to HSA and CSA was assessed in BIAcore™ 3000, by injecting concentration series of the fusion proteins ranging from 2 μM to 200 nM on a CM5 chip coated with ˜3000 RU HSA or CSA. Coating of the chip (CM5) was performed by amine coupling using NHS/EDC for activation and ethanolamine for deactivation (Biacore amine coupling kit). HBS-EP was used as flow buffer at a rate of […]. 90 μl of sample was injected for 120 s.
(SPR reads the build-up and loss of mass on a sensor chip optically.)
As for B1, the Kd (usually the constant that tells how readily two partners part at equilibrium) turned out to be 2110 nM and the kon (usually the rate constant with which the complex forms) was 4010 M⁻¹ s⁻¹.

In the case of B2, the affinity, expressed as Kd, was 1040 nM and the kon amounted to 4850 M⁻¹ s⁻¹.

As for B3, the affinity, expressed as Kd, was 1280 nM and the association rate constant (kon) is 3450 M⁻¹ s⁻¹.

Molecule B4 showed a Kd of 775 nM and an on-rate (kon) of 2750 M⁻¹ s⁻¹.

A further experiment concerns the target T2, von Willebrand factor (human, UniProt P04275 764-2813).
T2 construct: vWF of the human plasma in which the compounds were diluted; multimeric; also called vWF; VWF
As to the kind of experiment: inhibition ELISA: ristocetin-induced binding of plasma vWF to fixed human platelets (glycoprotein Ib), bound vWF detected with anti-VWF-HRP.
Turning to B5, the “IC50 (read off the curve)” value is ~20 nM.

As to B6, the binding result is on record as “binds”.

Regarding B7, the binding result was “binds”.

For the molecule B8, the “IC50 (read off the curve)” value is ~10 nM.

The target in another experiment is T1, cynomolgus monkey serum albumin. As to the kind of experiment: SPR, BIAcore 3000, CSA on CM5 chip. The source holds these as a separate data set. The procedure:
The binding was determined in BIAcore™ 3000, by injecting concentration series of the fusion proteins ranging from 2 μM to 200 nM on a CM5 chip coated with ˜3000 RU HSA or CSA. Coating of the chip (CM5) was performed by amine coupling using NHS/EDC for activation and ethanolamine for deactivation (Biacore amine coupling kit). HBS-EP was used as flow buffer at a rate of […]. 90 μl of sample was injected for 120 s.
With B9, the dissociation constant (Kd) worked out at 495 nM and the on-rate (kon) stood at 17100 M⁻¹ s⁻¹.

Regarding B10, binding was put at a Kd of 276 nM and the association rate constant (kon) is 8980 M⁻¹ s⁻¹.

For another experiment, the target named is T3, human serum albumin (human, UniProt P02768 25-609).
T3 construct: also called HSA
As to the kind of experiment: phage competition ELISA: phage pre-incubated with 2 µM HSA, captured on coated HSA. The procedure: (§2) Unbound phage was captured by transferring 100 μl of the well mixture to the HSA coated Maxisorp plate and incubating at room temperature for 30 minutes. The plate with captured phage was washed with PBS-0.05% Tween 20 five times. Bound phages were detected with anti-M13 and goat-anti mouse IRDye conjugate. The amount of IRDye bound was measured on Odyssey (LI-COR Biosciences). The ratio of phage binding was calculated by the following equation: fluorescence signal of well with competitor/fluorescence signal of well with no competitor (Table III).
(§3) After respectively three and four selection rounds, monoclonal phage were screened for binding on HSA, in the manner described in Example 2. Clones that bind to HSA (FIGS. 7A to 7C and Table V) were screened in phage competition ELISA, in the manner described in Example 5. The ratio of phage binding was calculated by the following equation: fluorescence signal of well with 2 μM competitor/fluorescence signal of well with no competitor (Table VI).
Consider B11, for which the “Ratio 2 µM/0 µM HSA” value came to 0.91.

Consider B12, for which the “Ratio 2 µM/0 µM HSA” value turned out to be 0.69.

Consider B13, for which the “Ratio 2 µM/0 µM HSA” value stood at 0.87.

Turning to B14, the “Ratio 2 µM/0 µM HSA” value worked out at 0.82.

The target of a further experiment is T3, human serum albumin. As to the kind of experiment: solution binding competition ELISA: phage pre-incubated with 1 µM HSA, captured on coated HSA. Here is the method: A competition ELISA was performed to determine the relative binding affinity for the selected phage clones. 96-well Nunc Maxisorp plates were coated with 2 μg/ml HSA in coating buffer at 4° C. Plates were blocked with SuperblockT20 (Pierce) for 1 h at room temperature. The microtiter plates were washed with wash buffer (PBS, 0.05% Tween 20).
as §2
Turning to B15, the “Ratio 1 µM/0 µM HSA” value was found to be 0.47.

Consider B16, for which the “Ratio 1 µM/0 µM HSA” value was determined as 0.43.

For B17, the “Ratio 1 µM/0 µM HSA” value was determined as 0.42.

The target in a further experiment is T3, human serum albumin. As to the kind of experiment: phage ELISA, phage titration on coated HSA, near-infrared fluorescence. The procedure:
(§4) 5-fold serial dilutions of phage clones (starting from ˜5×10¹¹ phage) were added to 96-well Nunc Maxisorp plates coated with human serum albumin (2 μg/ml in PBS, overnight at 4° C.; plates were blocked with Superblock T20 (Pierce) for 1 h at room temperature). […] The amount of IRDye bound was measured on Odyssey (LI-COR Biosciences). The dilution of phage was plotted against measured near-infrared fluorescence intensity (FIG. 2).
as §3
For orientation: In an ELISA, binding on a coated surface is turned into a signal by an enzyme label.
For B18, the binding result was “binds”.

For B19, the binding result is recorded as “binds”.

Another experiment has as its target T3, human serum albumin. As to the kind of experiment: phage ELISA, 5-fold phage dilutions on coated HSA, anti-M13 detection, near-infrared fluorescence. The procedure:
as §4
For B20, the binding result was “binds”.

For B21, the binding result is given as “binds”.

Consider B22, for which the binding result is “binds”.

A further experiment concerns the target T3, human serum albumin. As to the kind of experiment: SPR, BIAcore 3000, HSA on CM5 chip. Here is the method:
as §1
Consider B1, for which binding was put at a Kd of 991 nM, the koff (commonly a measure of how fast the partners let go of each other) worked out at 0.00497 s⁻¹ and the on-rate constant (kon) was determined as 5020 M⁻¹ s⁻¹.

As for B2, the dissociation constant (Kd) worked out at 571 nM, the off-rate constant (koff) was 0.00351 s⁻¹ and the on-rate constant (kon) came to 6140 M⁻¹ s⁻¹.

The molecule B3 showed a Kd of 663 nM, a koff of 0.00304 s⁻¹ and an on-rate constant (kon) of 4590 M⁻¹ s⁻¹.

B4 showed a Kd of 481 nM, a koff of 0.00179 s⁻¹ and a kon of 3730 M⁻¹ s⁻¹.

The record behind these values is patent publication US20120253008A1 (Ablynx, published 2012).
